The target of one experiment is T1, GST-MTR4∆N F677E (human, UniProt P42285 75-1042, F677E).
T1 construct: source: E. coli BL21 star (DE3), purified (Ni-NTA, heparin, SEC); not shown: 6xHis-GST, N-terminal, kept
T1 sequence (looked up): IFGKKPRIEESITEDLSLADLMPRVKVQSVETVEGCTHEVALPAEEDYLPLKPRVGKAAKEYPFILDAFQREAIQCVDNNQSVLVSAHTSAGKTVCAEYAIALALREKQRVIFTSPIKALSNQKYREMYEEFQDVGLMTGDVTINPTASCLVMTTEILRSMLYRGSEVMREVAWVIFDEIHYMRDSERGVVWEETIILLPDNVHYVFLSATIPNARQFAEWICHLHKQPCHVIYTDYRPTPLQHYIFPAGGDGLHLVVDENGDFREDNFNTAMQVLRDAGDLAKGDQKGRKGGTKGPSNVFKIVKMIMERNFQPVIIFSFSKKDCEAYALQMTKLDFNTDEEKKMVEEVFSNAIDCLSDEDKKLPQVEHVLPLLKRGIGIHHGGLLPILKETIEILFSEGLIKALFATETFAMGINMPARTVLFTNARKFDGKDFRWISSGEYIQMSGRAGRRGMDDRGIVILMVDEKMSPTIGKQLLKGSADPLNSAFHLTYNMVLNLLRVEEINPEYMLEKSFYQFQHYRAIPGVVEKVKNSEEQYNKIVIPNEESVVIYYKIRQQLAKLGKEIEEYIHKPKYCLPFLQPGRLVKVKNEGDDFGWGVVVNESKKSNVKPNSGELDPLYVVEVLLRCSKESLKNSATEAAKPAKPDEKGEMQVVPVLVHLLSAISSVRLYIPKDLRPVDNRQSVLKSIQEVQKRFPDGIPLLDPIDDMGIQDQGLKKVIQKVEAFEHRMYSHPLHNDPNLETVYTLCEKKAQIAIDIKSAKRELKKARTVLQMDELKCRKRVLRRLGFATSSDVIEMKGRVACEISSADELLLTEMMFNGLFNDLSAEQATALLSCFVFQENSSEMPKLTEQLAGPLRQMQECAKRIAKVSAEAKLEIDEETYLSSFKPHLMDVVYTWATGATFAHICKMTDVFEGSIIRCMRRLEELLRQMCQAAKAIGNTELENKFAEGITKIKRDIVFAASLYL
Put plainly: pull-down; GST-tagged MTR4 constructs as bait, Trx-NVL constructs as prey, glutathione sepharose; 10 μM GST-MTR4∆N with 20 μM Trx-NVL constructs; 50 mM Hepes pH 7.5, 150 mM NaCl, 5% glycerol, 0.05% NP40, 1 mM DTT, 30 min at 4 °C; SDS-PAGE, Coomassie. Particulars: both partners purified.

A further experiment deals with T2, GST-MTR4∆N R743E (human, UniProt P42285 75-1042, R743E).
T2 construct: also called R743E mutant; source: E. coli BL21 star (DE3), purified (Ni-NTA, heparin, SEC); not shown: 6xHis-GST, N-terminal, kept
T2 sequence (looked up): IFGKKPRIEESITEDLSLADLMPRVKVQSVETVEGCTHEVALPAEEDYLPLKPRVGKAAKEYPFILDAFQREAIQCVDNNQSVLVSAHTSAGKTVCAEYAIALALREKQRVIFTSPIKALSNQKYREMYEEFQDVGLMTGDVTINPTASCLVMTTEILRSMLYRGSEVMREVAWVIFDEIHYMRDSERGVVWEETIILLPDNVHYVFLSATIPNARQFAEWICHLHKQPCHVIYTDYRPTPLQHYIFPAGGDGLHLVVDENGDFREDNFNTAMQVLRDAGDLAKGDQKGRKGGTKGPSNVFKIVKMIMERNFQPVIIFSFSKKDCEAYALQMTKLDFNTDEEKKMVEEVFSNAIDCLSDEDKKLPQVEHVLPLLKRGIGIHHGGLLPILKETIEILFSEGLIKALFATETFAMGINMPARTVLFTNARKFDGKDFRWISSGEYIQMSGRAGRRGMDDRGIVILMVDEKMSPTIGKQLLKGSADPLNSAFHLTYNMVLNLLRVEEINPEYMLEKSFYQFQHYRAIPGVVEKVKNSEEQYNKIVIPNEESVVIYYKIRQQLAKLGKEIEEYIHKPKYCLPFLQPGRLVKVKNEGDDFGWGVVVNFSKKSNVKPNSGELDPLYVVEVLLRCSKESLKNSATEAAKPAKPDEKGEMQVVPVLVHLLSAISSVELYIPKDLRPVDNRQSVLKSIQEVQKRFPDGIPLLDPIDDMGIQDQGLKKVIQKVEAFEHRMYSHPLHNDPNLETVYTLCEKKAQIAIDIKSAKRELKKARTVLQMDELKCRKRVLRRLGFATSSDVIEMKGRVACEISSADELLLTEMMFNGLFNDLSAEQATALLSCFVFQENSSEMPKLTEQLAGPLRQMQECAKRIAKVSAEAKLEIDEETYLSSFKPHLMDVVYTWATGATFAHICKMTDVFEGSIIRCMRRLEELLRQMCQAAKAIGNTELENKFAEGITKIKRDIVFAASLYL
The description is as above. The settings on record: both partners purified.

B1: Trx-NVL^167–216 (domain or fragment, human, UniProt O15381 167-216, looked up)
chain: KDSEGGWFIDKTPSVKKDSFFLDLSCEKSNPKKPITEIQDSKDSSLLESD
notes: source: E. coli BL21 star (DE3), purified (Ni-NTA, SEC); not shown: 6xHis-Trx, N-terminal, kept
Consider B1, for which the binding result with GST-MTR4∆N F677E and with GST-MTR4∆N R743E was “binds” throughout.

Source of the values: paper PMC6662825, “The MTR4 helicase recruits nuclear adaptors of the human RNA exosome using distinct arch-interacting motifs” (Nature Communications, 2019).
